{
  "source": "patent US20060252692A1",
  "about": "“Inhibitors for use in hemostasis” (ZymoGenetics, Inc., priority 2002, published 2006)",
  "molecules": {"B1": {"name": "zsig37: adipocyte complement related protein homolog, polypeptide of SEQ ID NO:2, inhibits collagen-mediated platelet activation and the complement pathway (protein, listed as Homo sapiens)", "chain": "MGSRGQGLLLAYCLLLAFASGLVLSRVPHVQGEQQEWEGTEELPSPPDHAERAEEQHEKYRPSQDQGLPASRCLRCCDPGTSMYPATAVPQINITILKGEKGDRGDRGLQGKYGKTGSAGARGHTGPKGQKGSMGAPGERCKSHYAAFSVGRKKPMHSNHYYQTVIFDTEFVNLYDHFNMFTGKFYCYVPGLYFFSLNVHTWNQKETYLHIMKNEEEVVILFAQVGDRSIMQSQSLMLELREQDQVWVRLYKGERENAIFSEELDTYITFSGYLVKHATEP"}},
  "key": {"DA-1 cells": {"test_system": "DA-1 cells", "assay": "Proliferation assay on zsig37-coated plates, DA-1", "type": "cell-based, mouse", "details": "5,000 cells/well", "experimental": "A second assay was performed with TF-1, DA-1, an IL-3 dependent cell line derived from the lymph node of a mouse with a B-cell lymphoma by outgrowth in IL-3 media, pre-B (p53−/− mouse marrow cells, IL-7 dependent, B220+, Thy1 low, Sca-1+), and A7BaF-3 cell lines as described above at 5,000 cells/well. BHK cells were also plated at 500 cells/well."}, "[1]": {"test_system": "platelet rich thrombus formation induced by vascular injury", "assay": "Platelet rich thrombus formation induced by vascular injury (Folts Model)", "type": "in vivo, cynomolgus monkeys", "details": "remained open", "experimental": "The effect of zsig37 on platelet rich thrombus formation induced by vascular injury (Folts Model) was also tested with cynomolgus monkeys. In the absence of treatment, blood flow in the vessels decreased to zero flow, indicating an occlusion of the artery. In contrast, cynomolgus monkeys that received the vascular injury and were treated with 1.0 mg/kg zsig37 had vessels that were fully patent by 20 minutes following treatment and remained open. When cynomolgus monkeys received the vascular injury and were treated with 0.5 mg/kg zsig37, their vessels were fully patent by 30 minutes following treatment and then remained open."}, "[2]": {"test_system": "serotonin-contracted rat aortic sections", "assay": "Relaxation of serotonin-induced rat aortic ring contractions", "design": "species or system Sprague-Dawley rats", "experimental": "Male, Sprague-Dawley rats, approximately 3 months of age, were lightly anesthetized with CO2 and then decapitated. The thoracic aorta was then rapidly removed and placed in a modified Kreb's-Henseleit buffer (NaCl, 118.2 mM; KCl, 4.6 mM; CaCl2, 2.5 mM; MgSO4, 1.2 mM; NaHCO3, 24.8 mM; KH2PO4, 1.2 mM; and glucose, 10.0 mM). From each rat, four 2-3 mm aortic ring sections were cut after discarding the rough end of the aorta. In some experiments the endothelium was denuded, prior to cutting ring sections, by rubbing the lumen of the aorta along a 21 gauge needle. Denudation of the endothelium was verified by the addition of the acetylcholine analogue, carbachol, prior to determining zsig37 concentration-dependent responses.\nThe rings were fixed and connected to force displacement transducers in oxygenated (95% O2, 5% CO2), jacketed, glass organ baths kept at 30° C. in modified Kreb's-Henseleit buffer, pH 7.4. Resting tension was set at 1 gm, and continually re-adjusted to 1 gm over a one-hour incubation period. Fresh oxygenated modified Kreb's-Henseleit buffer was added to the baths every fifteen minutes during the resting incubation period. At the end of the one-hour incubation, the ring sections were contracted by the addition of 10 μM serotonin. After maximum contraction had been reached, approximately 15-20 minutes after the addition of the serotonin, cumulative concentration response curves for zsig37 were constructed. Zsig37 was added to 5 ml baths in volumes from 5 up to 150 μls, for final concentrations ranging from 1 ng/ml up to 40 μg/ml. Viability of the ring sections was verified at the end of the concentration response by the addition of forskolin (2.5 μM or 25 μM) or nitroglycerin (22 μM)."}, "[3]": {"test_system": "platelets activated by CRP (platelet GPVI)", "assay": "Inhibition of CRP activation of platelets by zsig37", "type": "cell-based, human", "details": "plate coated with 5 μg/ml CRP; zsig37 0-200 μg/ml", "experimental": "The lysine containing CRP (Ac-GKO-(GPO)10-GKOGV) (SEQ ID NO:15) was synthesized and cross-linked essentially as described by described by Morton (Morton et al., Biochem. J., 306(2):337-344 (Mar. 1, 1995)). The potency of the cross-linked CRP was determined using a using a modified microplate platelet aggregation method as described previously (Bednar B., et al., Thrombosis Research, 77(5):453-463 (1995)). Platelet rich plasma (PRP) was prepared by centrifugation (150 g, 30 min.) from citrated blood obtained from healthy volunteers. Modified Hepes Tyrodes buffer (10 mM Hepes, 137 mM NaCl, 2.7 mM KCL, 0.4 mM NaH2PO4, 1.2mM NaHCO3, 0.1% dextrose and 0.2% BSA fraction V) was used to adjust the platelet concentration to 2.6×10^8/mL. To determine potency, triplicate wells of 0-20 μg/ml of CRP was mixed with platelets in a 96-well flat bottom plate. As a control, collagen-I norm was assayed in triplicate at a final concentration of 1.25 μg/mL. The plate was agitated on a microplate reader and turbidity was monitored as percent light transmitted at 632 nm. The EC50 for the CRP was determined from 3 assays to be 0.1-0.2 μg/ml. […] The plate was washed three times with 5% BSA/PBS and triplicate wells of 0-200 μg/ml of zsig37 was incubated for 1 hour at room temperature. Platelets were then added and assayed as described."}, "[4]": {"test_system": "CCC4 osteoblast cell line, serum response element (SRE) luciferase", "assay": "SRE-luciferase assay in CCC4 osteoblast cell line", "type": "cell-based, mice", "details": "1000 ng/ml zsig37, four hours", "experimental": "Zsig37 polypeptides were assayed in a high throughput, in vitro assay to identify substances that selectively activate cellular responses in immortalized osteoblast cell lines. A mature osteoblast cell line derived from p53−/− (deficient) mice, CCC4, that is transfected with a plasmid containing an inducible serum response element (SRE) driving the expression of luciferase was used in the assay. These cells also express endogenous PTH, PDGF and bFGF receptors.\nCCC4 lines were trypsinized and adjusted to 5×10^4 cells/ml in plating medium (alpha-MEM, 1% heat inactivated fetal bovine serum, 1 mM Na pyruvate and 2 mM L-glutamate) and plated (200 μl/well) into Dynatech Microlite opaque white microtiter plates (Dynatech, Chantilly, Va.) and incubated overnight at 37° C., 5% CO2. The growth medium was then aspirated and replaced with 50 μl/well assay medium (F-12 HAM, 0.5% bovine serum albumin, 20 mM HEPES, 1 mM sodium pyruvate and 2 mM L-glutamate). […] Fifty microliters/well of luciferase substrate (Luciferase Assay Reagent, E1501, Promega Corp.) was added and the Luciferase activity was detected using a Labsystems LUMINOSKAN at 2 second/well following a one second delay. The average basal (uninduced) signal was subtracted from readings as a percentage of the maximal induction produced by 3 ng/ml bFGF. […]"}},
  "data": [
    {"molecule": "B1", "values": [
      {"measurement": "growth of DA-1 cells", "setting": "DA-1 cells", "result": "slightly inhibited growth"},
      {"measurement": "time to fully patent vessels following treatment", "setting": "[1]; 0.5 mg/kg", "result": "≤ 30", "unit": "min"},
      {"measurement": "time to fully patent vessels following treatment", "setting": "[1]; 1.0 mg/kg", "result": "≤ 20", "unit": "min"},
      {"measurement": "time to plateau of relaxation response after addition", "setting": "[2]", "result": "3 to 5", "unit": "min"},
      {"measurement": "time to relaxation after addition of each concentration", "setting": "[2]", "result": "30 to 60", "unit": "s"},
      {"measurement": "concentration at which relaxation was first observed", "setting": "[2]; 10 μM serotonin", "result": "above 100 ng/ml"},
      {"measurement": "vasorelaxation of serotonin-contracted aortic sections", "setting": "[2]; 10 μM serotonin, with and without an intact endothelium, 1 ng/ml up to 40 μg/ml", "result": "concentration-dependent vasorelaxation"},
      {"measurement": "inhibition of CRP activation of platelets", "setting": "[3]", "result": "results from 3 of 6 assays demonstrated inhibition of CRP"},
      {"measurement": "luciferase expression as percentage of the maximal induction produced by 3 ng/ml bFGF", "setting": "[4]", "result": "73 to 75", "unit": "%"}
    ]}
  ]
}
